The record followed here is PMC6503385, “Functional characterization of BmOVOs in silkworm, Bombyx mori”.

The target in this data set is BmOVO zinc-finger domain (BmOVO-2 C-terminal) (Bombyx mori, UniProt D3YIG7 629-806). The experiment in a line: EMSA; 0.02 mg/ml protein, poly dI.dC; LightShift EMSA kit, 20 ul: 1x binding buffer, 1 ul each poly dI.dC, NP-40, KCl, glycerol; 0.75 pM probe; 20 min at room temperature; 6% polyacrylamide gel; pH. The settings on record: protein: recombinant; tags: 6xHis (pET28a); label: biotin (5' on both strands as printed); blunt. In general terms: Mobility shift assays separate free from complexed probe on a gel.
BmOVO zinc-finger domain (BmOVO-2 C-terminal), sequence (D3YIG7 entry or part of it): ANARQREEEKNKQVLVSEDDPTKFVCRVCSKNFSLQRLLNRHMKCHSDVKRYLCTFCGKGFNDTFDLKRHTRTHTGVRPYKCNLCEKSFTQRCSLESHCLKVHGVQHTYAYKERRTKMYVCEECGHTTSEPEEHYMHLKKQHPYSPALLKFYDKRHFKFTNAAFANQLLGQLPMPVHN

B1: otu-A (CE1) (dsDNA)
DNA 1: GCCCCTAAAATGTACCGTTGTAACTTCTGT
DNA 2: ACAGAAGTTACAACGGTACATTTTAGGGGC
Regarding B1, the binding result is reported as “binds”.
